Variants at the floor of the assay were thinned out.
B1: TPR 5TU (parent)
chain: GGAUCUUCUCGAUCUAACAAAAAAGACAAAUCUGCCACAAAGCUUGAGAGCAUCUUCGGAUGCAGAGGCGGCAGCCUUCGGUGGCGCGAUAGCGCCAACGUUCUCAACUAUGACACGCAAAACGCGUGCUCCGUUGAAUGGAGUUUAUCAUG

Variants of: B1
Experiment: polymerase ribozyme fitness, log enrichment relative to wild type (log ratio); higher = more active; in vitro selection for triplet polymerase activity
Outline: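 One round of in vitro selection, in triplicate, was applied to PCR-built, transcribed mutant libraries of each subunit of a heterodimeric triplet polymerase ribozyme. The steps were annealing with a biotinylated primer, partner subunit and triplets, incubation frozen at −7 °C, gel excision of extended constructs, streptavidin-bead capture and RT-PCR. Fitness is the logarithm, base 2, of genotype enrichment over wild-type enrichment from inverse-variance-weighted replicate averages of Illumina-sequenced inputs and outputs, keeping genotypes with ≥10 input reads and ≥1 read per output.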

| Variant | polymerase ribozyme fitness (log ratio) |
| --- | --- |
| A26G C54G C57U C96U C132U | ≤ -4.2 |
| G25U C43U U61A G84U C85A A89U C93A C103A G141U | ≤ -4.2 |
| A23C C131G U134G | ≤ -4.2 |
| A24C A41U C54A | ≤ -4.2 |
| G25C U53G C57A A120C G128A | ≤ -4.2 |
| G25C U33G G59A U78A G92C C99A G100U U134A | ≤ -4.2 |
| A24G C123U G140C | ≤ -4.2 |
| A24U A26G C51U A64U A66C C69U C108A C123A | ≤ -4.2 |
| G25U U31A A64C U90A G124A | ≤ -4.2 |
| A24C G58C C72G U130G | ≤ -4.2 |
| G25U C36G A97G U109C | ≤ -4.2 |
| A26C G94A | -1.36 |
| A26C G94C | -1.54 |
| A26C G59U A60C U145A | -2.83 |
| G25C G42C C57U G70A C87A G143A | ≤ -4.2 |
| G25U A28C G50C A52C C93G | ≤ -4.2 |
| A26C G65C G84A A89C G141C | ≤ -4.2 |
| A24U C93U | -1.27 |
| A24U C57U G62A | -0.097 |
| A24U C93U C125G G133A A142G A150U | ≤ -4.2 |
| G25C A52G U56A A60C G67A C99U C116U G133C U135A | ≤ -4.2 |

| Variant | polymerase ribozyme fitness (log ratio) |
| --- | --- |
| G25A A40G C43U G62C C85U G86A C95A G133U | ≤ -4.2 |
| G25U G68U G83U U104G A115C | ≤ -4.2 |
| A23C G25A C32A C63U C87A | ≤ -4.2 |
| G25U G58U C69A G71C G94U G100C | ≤ -4.2 |
| A24C C79U | ≤ -4.2 |
| G25C A119C G136A | -3.75 |
| G25C A28U C54U G83A C99U G124A | ≤ -4.2 |
| A26U C54G C87G A106G U130G | ≤ -4.2 |
| G25C A64U C125G | ≤ -4.2 |
| A26C A60U U104C | -3.72 |
| A24G A52C A110U | ≤ -4.2 |
| A26C G59A C76U G84U G88A G126A | ≤ -4.2 |
| A24G A26U A39U U53A C57U G59A G68U G86A C99A A106U | -4.18 |
| A24G U55A C57U A73U U82G G92A A97U G141C | ≤ -4.2 |
| A23C C118U U144A | ≤ -4.2 |
| A26U A39U G94U A113U A119G U127C G152C | ≤ -4.2 |
| A24U A40G C57A C96A C99U U134A | ≤ -4.2 |
| G25U A26G C32G C85G A106G C129U G140C G143A | ≤ -4.2 |
| A24C U56A G86A A150G | ≤ -4.2 |
| A23U C51U C76A C96G C103G A115G | ≤ -4.2 |
| A24C C54G G74A U82A A89U U146A | ≤ -4.2 |

| Variant | polymerase ribozyme fitness (log ratio) |
| --- | --- |
| A24U C76A C85A | -1.65 |
| G25C C57A G83A G86U C96G A106G U127G | ≤ -4.2 |
| A26C U78C | -3.76 |
| A23U G48A A113G A120U | ≤ -4.2 |
| A23U G58C G68A C79G A150G | ≤ -4.2 |
| A26G G58C A60G U82C C93G A98U C103A C105G G143U | ≤ -4.2 |
| A23G U56A | -2.39 |
| A23G A29U G59A G94A | ≤ -4.2 |
| A24U A47U G50A G59U A60G C87U C103G U109A A110G | -4.01 |
| A24C C69A C105A C114U A122U | ≤ -4.2 |
| A24C C43A U45A | ≤ -4.2 |
| A24U G83C C99G | -4.19 |
| A24U G42A U53A U90G A107U C108A U145C | ≤ -4.2 |
| A23U G70U U78A G94A C95U C114U | ≤ -4.2 |
| A24U A91G A97G A115U | -4.19 |
| A26G A41G U53A G74A G141A | ≤ -4.2 |
| G25A C96G C99G G152U | ≤ -4.2 |
| A23U A24U A73G G88A A91C C114U | ≤ -4.2 |
| A24G C43U A73G G83U U101G C105G U127C G140C | ≤ -4.2 |
| G25U A52U U145C | -3.91 |
| A23G G94U U148C | ≤ -4.2 |

| Variant | polymerase ribozyme fitness (log ratio) |
| --- | --- |
| A23G A49C G65C G80U G86U C99A | ≤ -4.2 |
| A24G G88U | ≤ -4.2 |
| A23G U90G C93A A107U | ≤ -4.2 |
| A24G C54U | -2.83 |
| G25C C57U | -2.94 |
| A24C A39G | -3.42 |
| A23U A40U C51U U78G | ≤ -4.2 |
| A24G A49C G92U A122C | ≤ -4.2 |
| A24C G71A U135C U146C U148A | ≤ -4.2 |
| A23C C79U C96U C99A | ≤ -4.2 |
| A24C C51U C54G G74U C85G A97U | -4.18 |
| A26G C35U A37U C76A U78A | ≤ -4.2 |
| A23U A29U G50A C69G A89C G112C A120U A122U | ≤ -4.2 |
| G25U A28U G50A G83C C87G A89U A91G | ≤ -4.2 |
| G25A C79G U90A U104A G117U | ≤ -4.2 |
| G25U C87U A122G | -3.5 |
| A23U G42A C51U G71A G94A U101G | ≤ -4.2 |
| A26C C38A G48U C63G C75U C87A C105A | ≤ -4.2 |
| A23U C93G | ≤ -4.2 |
| A26C A29G C51U U53G G68A A142C A150G G152A | ≤ -4.2 |
| A23C U55A | -3.85 |
